# Laboratory results reported in paper PMC3963500.
# Biological target: PDGF-BB (UniProt P01127 82-190)
# Test: microcantilever deflection
# Chain of PDGF-BB (P01127 82-190): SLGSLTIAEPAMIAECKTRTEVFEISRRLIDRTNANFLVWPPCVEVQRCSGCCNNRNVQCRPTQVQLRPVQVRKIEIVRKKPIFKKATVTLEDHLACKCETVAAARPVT
binder,measurement,value
"CACAGGCTACGGCACGTAGAGCATCACCATGATCCTGTG (structured_DNA, thiol (HS-aptamer; printed as 3'T after the sequence), immobilized on Au-coated cantilever) [PDGF aptamer (thiolated)]",binding result,binds
